Values of other authors in patent publication US9453050B2, “Compositions for treating glioma” (GLIA SP Z.O.O., priority 2011, dated 2016).

Experiments:
[1] = molecular target: T1, high affinity receptor (GM-CSFRα.βc complex) (Homo sapiens, UniProt P15509+P32927); conditions: VonFeldt et al.; cited from earlier work
T1 sequence (P15509 23-400): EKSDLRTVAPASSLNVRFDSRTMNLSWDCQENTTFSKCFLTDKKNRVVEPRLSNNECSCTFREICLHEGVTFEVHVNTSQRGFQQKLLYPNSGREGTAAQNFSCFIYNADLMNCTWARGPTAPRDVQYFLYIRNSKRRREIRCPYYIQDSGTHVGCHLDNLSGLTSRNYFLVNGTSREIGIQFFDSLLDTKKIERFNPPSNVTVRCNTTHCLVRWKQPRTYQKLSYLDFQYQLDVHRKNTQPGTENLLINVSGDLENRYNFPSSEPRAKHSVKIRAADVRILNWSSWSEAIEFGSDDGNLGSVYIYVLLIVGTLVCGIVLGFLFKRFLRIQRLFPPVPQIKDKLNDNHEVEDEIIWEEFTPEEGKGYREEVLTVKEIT
T1 sequence (P32927 17-897): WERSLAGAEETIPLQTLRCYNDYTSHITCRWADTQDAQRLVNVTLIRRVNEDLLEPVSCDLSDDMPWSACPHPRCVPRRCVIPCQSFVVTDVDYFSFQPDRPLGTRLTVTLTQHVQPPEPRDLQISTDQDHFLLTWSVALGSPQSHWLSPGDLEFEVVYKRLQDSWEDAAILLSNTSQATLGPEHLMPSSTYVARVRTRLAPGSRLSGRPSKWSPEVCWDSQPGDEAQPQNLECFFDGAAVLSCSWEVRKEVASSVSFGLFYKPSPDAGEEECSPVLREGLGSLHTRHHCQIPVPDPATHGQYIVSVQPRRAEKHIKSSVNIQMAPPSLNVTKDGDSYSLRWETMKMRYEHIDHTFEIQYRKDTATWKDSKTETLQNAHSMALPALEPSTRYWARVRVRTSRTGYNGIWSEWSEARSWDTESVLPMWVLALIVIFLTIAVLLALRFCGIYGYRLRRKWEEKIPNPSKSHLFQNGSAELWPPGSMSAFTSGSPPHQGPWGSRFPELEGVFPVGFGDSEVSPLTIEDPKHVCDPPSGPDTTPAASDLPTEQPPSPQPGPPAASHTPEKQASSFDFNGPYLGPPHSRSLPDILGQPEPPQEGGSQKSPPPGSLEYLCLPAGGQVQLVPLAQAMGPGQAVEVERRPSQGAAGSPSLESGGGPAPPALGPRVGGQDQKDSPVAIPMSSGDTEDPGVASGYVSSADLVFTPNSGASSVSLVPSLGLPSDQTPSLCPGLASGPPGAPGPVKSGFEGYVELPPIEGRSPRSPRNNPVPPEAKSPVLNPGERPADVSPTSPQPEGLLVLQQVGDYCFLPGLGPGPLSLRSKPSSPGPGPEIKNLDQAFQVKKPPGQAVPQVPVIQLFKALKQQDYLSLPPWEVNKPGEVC

[2] = molecular target: T2, low affinity receptor (GM-CSFRα alone) (Homo sapiens, UniProt P15509); conditions: VonFeldt et al.; cited from earlier work
T2 sequence (P15509 23-400): T1 sequence (P15509 23-400)

| Substance | high affinity receptor binding [1] | low affinity receptor binding [2] |
| --- | --- | --- |
| amino acids 17-31 (the A helix) of GM-CSF: linear peptide analog of GM-CSF, VonFeldt et al. (NAIQEARRLLNLSRD; UniProt P04141 34-48, looked up, fragment) | inhibits |  |
| peptide consisting of amino acids 54-78 (B and C helices): linear peptide analog of GM-CSF, VonFeldt et al. (CLQTRLELYKQGLRGSLTKLKGPLT; UniProt P04141 71-95, looked up, fragment) |  | inhibits |
